Article PMC10672168, “Invasive Staphylococcus epidermidis uses a unique processive wall teichoic acid glycosyltransferase to evade immune recognition” (Science Advances, 2023)

Legend:
TarM(Se) = conditions: 30 mM ligand; acceptor site; only two RboP units and one phosphate ordered; monomeric mutant
[1] = target: TarM(Se) E10A mutant (S. epidermidis); experiment: SEC; Superdex 200 increase 10/30, calibrated column; buffer D: 20 mM triethanolamine pH 7.8 (TarM(Se)_(G117R)) or 8.5 (TarM(Se) and mutant proteins), 250 mM LiCl, 10 mM β-mercaptoethanol, 5% glycerol
[2] = target: TarM(Se) K233A mutant (S. epidermidis); experiment: as above
[3] = target: TarM(Se) N9A mutant (S. epidermidis); experiment: as above
[4] = target: TarM(Se) N203A mutant (S. epidermidis); experiment: as above
[5] = target: TarM(Se) N255A mutant (S. epidermidis); experiment: as above
[6] = target: TarM(Se) Q265A mutant (S. epidermidis); experiment: as above
[7] = target: TarM(Se), WTA glycosyltransferase TarM of S. epidermidis, wild type (S. epidermidis); experiment: crystal structure
[8] = target: TarM(Se), WTA glycosyltransferase TarM of S. epidermidis, wild type (S. epidermidis); experiment: SEC; Superdex 200 increase 10/30, calibrated column; buffer D: 20 mM triethanolamine pH 7.8 (TarM(Se)_(G117R)) or 8.5 (TarM(Se) and mutant proteins), 250 mM LiCl, 10 mM β-mercaptoethanol, 5% glycerol

## NCCCCCCOP(=O)(O)OC[C@@H](O)[C@@H](O)[C@@H](O)COP(=O)(O)OC[C@@H](O)[C@@H](O)[C@@H](O)COP(=O)(O)OC[C@@H](O)[C@@H](O)[C@@H](O)COP(=O)(O)OC[C@@H](O)[C@@H](O)[C@@H](O)CO [4RboP-(CH2)6NH2]
TarM(Se)
  X-ray crystal structure (cocrystallization): The 4RboP-(CH2)6NH2 compound was introduced into the TarM(Se)G117R crystals through cocrystallization

## TarM(Se) E10A mutant (enzyme)
[1]
  stoichiometry N: 3

## TarM(Se) K233A mutant (enzyme)
[2]
  stoichiometry N: 3

## TarM(Se) N9A mutant (enzyme)
[3]
  stoichiometry N: 3

## TarM(Se) N203A mutant (enzyme)
[4]
  stoichiometry N: 3

## TarM(Se) N255A mutant (enzyme)
[5]
  stoichiometry N: 3

## TarM(Se) Q265A mutant (enzyme)
[6]
  stoichiometry N: 3

## TarM(Se), WTA glycosyltransferase TarM of S. epidermidis, wild type (enzyme)
[7]
  stoichiometry N: 3
[8]
  stoichiometry N: 3
